Laboratory results reported in patent publication US20230374142A1 (MONASH UNIVERSITY, published 2023).

Molecular target: T1, full-length human CLEC9A on transfected 293F cells (human, UniProt Q6UXN8 1-241)
T1 construct: also called cell surface CLEC9A
Experiment: flow cytometry on 293F cells transfected with full-length human CLEC9A

T1 sequence (Q6UXN8 whole entry): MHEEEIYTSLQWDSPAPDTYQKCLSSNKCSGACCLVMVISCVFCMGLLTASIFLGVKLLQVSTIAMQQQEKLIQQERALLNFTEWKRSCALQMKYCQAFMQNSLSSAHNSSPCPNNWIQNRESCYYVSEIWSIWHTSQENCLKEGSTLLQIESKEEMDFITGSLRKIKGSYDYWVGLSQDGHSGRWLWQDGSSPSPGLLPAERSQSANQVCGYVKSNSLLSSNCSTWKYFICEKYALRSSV

Binder | binding result
humanised anti-CLEC9A Ab (Ab1) (antibody, human IgG4 S228P, kappa, V domains shown, Human IgG4 / kappa; also called Humanised CLEC9A Ab; humanised anti-CLEC9A antibody) VH: EVQLLESGGGLVQPGGSLRLSCAASGFTFNNYWLAWVRQAPGKGLEWVASITTAAGGTYYPDSVKGRFTISRDNSKNTLYLQMNSLRAEDTAVYYCTRVGRDIWDYWGQGTLVTVSS VL: DIVMTQTPLSLSVTPGQPASISCKSSQSLLHSDGNTYLHWYLQKPGQPPQLLIWRISNRFSGVPDRFSGSGSGTDFTLKISRVEAEDVGVYYCLQSSHFPPTFGGGTKVEIKR | binds
human/rat chimaeric anti-CLEC9A Ab (clone 4C6) (antibody, V domains shown, also called human chimeric anti-Clec9A Ab; original human chimaeric anti-CLEC9A Ab) VH: EVQLVESGGGLVQPGGSLKLSCVASGFTFNNYWLAWIRQAPRKGLEWVASITTAAGGTYYPDSVKGRFTISRDNAKSTLYLQMNSLTSEDTATYYCTRVGRDIWDYWGQGVVVTVSS VL: EILMTQTPVSLPVSLGGQVSFSCRSSQSLLHSDGNTYLHWYLQKPGQSPQLLIWRISNRFSGVPDRFSGSGSGTDFTLKISRVEPEDLGVYYCLQSSHFPPTFGGGTNLEIKR | binds
